Experimental data reported in patent publication US20180273587A1 (AILERON THERAPEUTICS, published 2018).
Positions of bridges follow the written chain, without caps; N, C: chain ends. Non-standard residues stand in square brackets, D forms with d. R8 = C=CCCCCCC[C@@](C)(N)C(=O)O; S5 = C=CCCC[C@](C)(N)C(=O)O; Aib = CC(C)(N)C(=O)O

How the values were obtained:
BCL-2 [1] = target: BCL-2 (UniProt P10415); experiment: Ki (Table 8); method not stated
BCL-XL [2] = target: BCL-XL (UniProt Q07817); experiment: Ki (Table 8); method not stated
BCL-XL (UniProt Q07817), sequence (Q07817 1-209): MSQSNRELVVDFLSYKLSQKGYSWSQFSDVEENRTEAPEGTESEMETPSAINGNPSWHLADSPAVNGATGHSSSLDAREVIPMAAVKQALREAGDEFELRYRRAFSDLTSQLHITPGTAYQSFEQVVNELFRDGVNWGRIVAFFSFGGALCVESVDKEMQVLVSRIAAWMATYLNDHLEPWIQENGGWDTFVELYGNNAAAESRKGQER

MCL-1 [3] = target: MCL-1 (UniProt Q07820); experiment: Ki (Table 8); method not stated
MCL-1 (UniProt Q07820), sequence (Q07820 172-327 limits assumed): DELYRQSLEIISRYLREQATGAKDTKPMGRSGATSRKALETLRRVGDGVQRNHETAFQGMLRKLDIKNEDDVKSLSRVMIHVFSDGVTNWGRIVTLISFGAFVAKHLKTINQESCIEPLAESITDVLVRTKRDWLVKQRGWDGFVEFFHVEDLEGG

MCL-1 [4] = target: T1, MCL-1 (UniProt Q07820 172-327, limits assumed); experiment: Ki (Table 6); method not stated
T1 construct: Target of the Ki columns; also called Myeloid cell leukemia 1
T1 sequence (Q07820 172-327 limits assumed): as above

BCL-XL [5] = target: T2, BCL-XL (UniProt Q07817 1-209); experiment: Ki (Table 6); method not stated
T2 construct: Target of the Ki columns
T2 sequence (Q07817 1-209): as the sequence (Q07817 1-209) above

BCL-2 [6] = target: T3, BCL-2 (UniProt P10415 1-217, limits assumed); experiment: Ki (Table 6); method not stated
T3 construct: Target of the Ki columns
T3 sequence (P10415 1-217 limits assumed): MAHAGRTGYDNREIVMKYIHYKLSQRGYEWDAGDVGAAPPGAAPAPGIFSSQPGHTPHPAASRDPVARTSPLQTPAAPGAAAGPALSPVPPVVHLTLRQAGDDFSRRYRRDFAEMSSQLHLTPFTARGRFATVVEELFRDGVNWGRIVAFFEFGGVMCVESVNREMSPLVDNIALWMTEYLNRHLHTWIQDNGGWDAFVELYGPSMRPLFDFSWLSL

MCL-1 [7] = target: T1, MCL-1; experiment: Ki (Table 8); method not stated
BCL-XL [8] = target: T2, BCL-XL; experiment: Ki (Table 8); method not stated
BCL-2 [9] = target: T3, BCL-2; experiment: Ki (Table 8); method not stated
MCL-1 [10] = target: T1, MCL-1; experiment: inhibitory constant assay (Table 7); method not stated
BCL-XL [11] = target: T2, BCL-XL; experiment: as above
BCL-2 [12] = target: T3, BCL-2; experiment: as above

BCL-2 (UniProt P10415), sequence (P10415 1-217 limits assumed): as above

Molecule	Ki (MCL-1 [4])	Ki (BCL-XL [5])	Ki (BCL-2 [6])	Ki (MCL-1 [7])	Ki (BCL-XL [8])	further results
BIM-SAHBA1 (peptide)						Ki (BCL-2 [1]): 29.6 nM; Ki (BCL-XL [2]): 6.2 nM; Ki (MCL-1 [3]): 2.7 nM
Ac-IWIAQALA[R8]IGDAFN[S5]YYA-NH2 (staple 9-16; SMILES CC[C@H](C)[C@H](NC(C)=O)C(=O)N[C@@H](Cc1c[nH]c2ccccc12)C(=O)N[C@H](C(=O)N[C@@H](C)C(=O)N[C@@H](CCC(N)=O)C(=O)N[C@@H](C)C(=O)N[C@@H](CC(C)C)C(=O)N[C@@H](C)C(=O)N[C@]1(C)CCCCCCC=CCCC[C@@](C)(C(=O)N[C@@H](Cc2ccc(O)cc2)C(=O)N[C@@H](Cc2ccc(O)cc2)C(=O)N[C@@H](C)C(N)=O)NC(=O)[C@H](CC(N)=O)NC(=O)[C@H](Cc2ccccc2)NC(=O)[C@H](C)NC(=O)[C@H](CC(=O)O)NC(=O)CNC(=O)[C@H]([C@@H](C)CC)NC1=O)[C@@H](C)CC) [Cross-linked peptide #11]	73.8 nM	386 nM	1090 nM			
Ac-IWIAQALR[R8]IGNAFN[S5]YYA-NH2 (staple 9-16; SMILES CC[C@H](C)[C@H](NC(C)=O)C(=O)N[C@@H](Cc1c[nH]c2ccccc12)C(=O)N[C@H](C(=O)N[C@@H](C)C(=O)N[C@@H](CCC(N)=O)C(=O)N[C@@H](C)C(=O)N[C@@H](CC(C)C)C(=O)N[C@@H](CCCNC(=N)N)C(=O)N[C@]1(C)CCCCCCC=CCCC[C@@](C)(C(=O)N[C@@H](Cc2ccc(O)cc2)C(=O)N[C@@H](Cc2ccc(O)cc2)C(=O)N[C@@H](C)C(N)=O)NC(=O)[C@H](CC(N)=O)NC(=O)[C@H](Cc2ccccc2)NC(=O)[C@H](C)NC(=O)[C@H](CC(N)=O)NC(=O)CNC(=O)[C@H]([C@@H](C)CC)NC1=O)[C@@H](C)CC) [Cross-linked peptide #12]	195 nM	416 nM	405 nM			
Ac-IWIAQAAR[R8]IGDAFN[S5]YYA-NH2 (staple 9-16; SMILES CC[C@H](C)[C@H](NC(C)=O)C(=O)N[C@@H](Cc1c[nH]c2ccccc12)C(=O)N[C@H](C(=O)N[C@@H](C)C(=O)N[C@@H](CCC(N)=O)C(=O)N[C@@H](C)C(=O)N[C@@H](C)C(=O)N[C@@H](CCCNC(=N)N)C(=O)N[C@]1(C)CCCCCCC=CCCC[C@@](C)(C(=O)N[C@@H](Cc2ccc(O)cc2)C(=O)N[C@@H](Cc2ccc(O)cc2)C(=O)N[C@@H](C)C(N)=O)NC(=O)[C@H](CC(N)=O)NC(=O)[C@H](Cc2ccccc2)NC(=O)[C@H](C)NC(=O)[C@H](CC(=O)O)NC(=O)CNC(=O)[C@H]([C@@H](C)CC)NC1=O)[C@@H](C)CC) [Cross-linked peptide #13]	501 nM	100000 nM	100000 nM			
IWIAQALRALGDAFNAYFA (not fully specified; N-terminal Ac; $r8 at residue 9 (column 154) and $ at residue 16 (column 161), crosslinked; hL at residue 10 (column 155); F4F at residue 18 (column 163); C-terminal NH2) [Cross-linked peptide #16]				27 nM	13 nM	
IWIAQALXAIGDAFNAYYA (N-terminal Ac; Cit at residue 8 (column 153); $r8 at residue 9 (column 154) and $ at residue 16 (column 161), crosslinked; C-terminal NH2) [Cross-linked peptide #5]	7.5 nM	110 nM	212 nM			
Ac-IWIAQALR[R8]IGDEFN[S5]YYARR-NH2 (staple 9-16; SMILES CC[C@H](C)[C@H](NC(C)=O)C(=O)N[C@@H](Cc1c[nH]c2ccccc12)C(=O)N[C@H](C(=O)N[C@@H](C)C(=O)N[C@@H](CCC(N)=O)C(=O)N[C@@H](C)C(=O)N[C@@H](CC(C)C)C(=O)N[C@@H](CCCNC(=N)N)C(=O)N[C@]1(C)CCCCCCC=CCCC[C@@](C)(C(=O)N[C@@H](Cc2ccc(O)cc2)C(=O)N[C@@H](Cc2ccc(O)cc2)C(=O)N[C@@H](C)C(=O)N[C@@H](CCCNC(=N)N)C(=O)N[C@@H](CCCNC(=N)N)C(N)=O)NC(=O)[C@H](CC(N)=O)NC(=O)[C@H](Cc2ccccc2)NC(=O)[C@H](CCC(=O)O)NC(=O)[C@H](CC(=O)O)NC(=O)CNC(=O)[C@H]([C@@H](C)CC)NC1=O)[C@@H](C)CC) [Cross-linked peptide #15]				10.6 nM	5.2 nM	Ki (BCL-2 [9]): 12.8 nM
Ac-RWIAQALR[S5]IGD[S5]LN[Aib]FYAHH-NH2 (staple 9-13; SMILES CC[C@H](C)[C@H](NC(=O)[C@H](Cc1c[nH]c2ccccc12)NC(=O)[C@H](CCCNC(=N)N)NC(C)=O)C(=O)N[C@@H](C)C(=O)N[C@@H](CCC(N)=O)C(=O)N[C@@H](C)C(=O)N[C@@H](CC(C)C)C(=O)N[C@@H](CCCNC(=N)N)C(=O)N[C@@]1(C)CCCC=CCCC[C@@](C)(C(=O)N[C@@H](CC(C)C)C(=O)N[C@@H](CC(N)=O)C(=O)NC(C)(C)C(=O)N[C@@H](Cc2ccccc2)C(=O)N[C@@H](Cc2ccc(O)cc2)C(=O)N[C@@H](C)C(=O)N[C@@H](Cc2c[nH]cn2)C(=O)N[C@@H](Cc2c[nH]cn2)C(N)=O)NC(=O)[C@H](CC(=O)O)NC(=O)CNC(=O)[C@H]([C@@H](C)CC)NC1=O) [Cross-linked peptide #14]				17 nM	114 nM	Ki (BCL-2 [9]): 215 nM; Ki (MCL-1 [10]): 11 nM; Ki (BCL-XL [11]): 178 nM; Ki (BCL-2 [12]): 151 nM
